Experimental data taken from US20040005320A1 (ZymoGenetics, published 2004).

Experiments:
[1] = biological target: T1, IL-20RA/IL-20RB heterodimeric receptor (human, UniProt Q9UHF4 30-553; Q6UXL0 30-311); test: 125I-labeled IL-20 binding on BHK cells expressing IL-20RA and IL-20RB
T1 construct: Both subunits were co-expressed on transfected COS, BHK or BaF3 cells, or were endogenous on human HaCaT keratinocytes; also called IL-20RB/IL-20RA heterodimer; IL-20 receptor
T1 sequence 1: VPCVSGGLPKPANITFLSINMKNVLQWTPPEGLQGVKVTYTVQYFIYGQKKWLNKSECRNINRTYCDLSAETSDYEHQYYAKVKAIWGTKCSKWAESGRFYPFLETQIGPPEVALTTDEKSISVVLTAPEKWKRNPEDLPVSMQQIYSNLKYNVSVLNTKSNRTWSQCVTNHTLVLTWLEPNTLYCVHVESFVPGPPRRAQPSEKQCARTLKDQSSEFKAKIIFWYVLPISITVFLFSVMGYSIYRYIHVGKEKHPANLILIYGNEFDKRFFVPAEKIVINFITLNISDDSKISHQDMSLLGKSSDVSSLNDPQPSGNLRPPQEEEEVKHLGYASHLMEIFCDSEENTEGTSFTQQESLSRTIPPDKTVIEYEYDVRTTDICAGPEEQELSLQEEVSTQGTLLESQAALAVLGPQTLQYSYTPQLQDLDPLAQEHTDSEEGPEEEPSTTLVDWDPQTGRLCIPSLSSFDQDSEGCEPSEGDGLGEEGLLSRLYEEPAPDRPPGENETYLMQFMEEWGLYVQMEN
T1 sequence 2: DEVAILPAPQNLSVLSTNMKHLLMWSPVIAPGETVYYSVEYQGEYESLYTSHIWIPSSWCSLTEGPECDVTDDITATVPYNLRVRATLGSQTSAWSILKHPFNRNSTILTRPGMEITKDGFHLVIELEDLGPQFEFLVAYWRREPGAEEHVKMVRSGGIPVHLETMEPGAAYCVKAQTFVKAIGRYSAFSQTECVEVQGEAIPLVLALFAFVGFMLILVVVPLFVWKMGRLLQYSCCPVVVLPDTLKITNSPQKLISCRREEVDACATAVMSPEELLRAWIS
Method: (§1) The specificity and affinity of IL-20 for its receptor was determined using BHK cells stably transfected with IL-20RA, IL-20RB or both receptor subunits. […] Binding of ¹²⁵I-labeled IL-20 was eliminated in the presence of 100-fold excess of unlabeled IL-20 but not with 100-fold excess of the unrelated cytokine, IL-21.

IL-20RB = biological target: T2, IL-20RB (human, UniProt Q6UXL0 30-311); test: radiolabeled ligand binding on stably transfected BHK cells
T2 construct: Expressed alone on stably transfected BHK cells; also called IL-20RB subunit alone
T2 sequence: T1 sequence 2
Method: as §1

IL-20RA = biological target: T3, IL-20RA (human, UniProt Q9UHF4 30-553); test: as above
T3 construct: Expressed alone on stably transfected BHK cells; also called Zcytor7; IL-20RA subunit alone
T3 sequence: T1 sequence 1
Method: as §1

Kd [1]: ~1.5 nM | binding result (IL-20RB): no binding | binding result (IL-20RA): no binding
B1: IL-20 (ligand, UniProt Q9NYY1 25-176, looked up)
chain: LKTLNLGSCVIATNLQEIRNGFSEIRGSVQAKDGNIDIRILRRTESLQDTKPANRCCLLRHLLRLYLDRVFKNYQTPDHYTLRKISSLANSFLTIKKDLRLCHAHMTCHCGEEAMKKYSQILSHFEKLEPQAAVVKALGELDILLQWMEETE
notes: also called biotin-labeled IL-20 protein; biotinylated IL-20
